Data: US20230407298A1 (Johns Hopkins, published 2023)
One block for each binder: values may come before it.

Molecular target: T1, XPO1 (human, UniProt O14980 1-1071)
T1 construct: Endogenous protein pulled down from iPSN nuclear lysates with mouse anti-XPO1 (Santa Cruz sc-74454) coupled to Protein G beads; also called CRM1; XPO1/CRM1
Assay: co-immunoprecipitation with anti-XPO1 from iPSN nuclear lysates, western blot
Method: Nuclei were isolated from iPSNs as described above. The resulting nuclei pellet was lysed in 1 mL IP buffer by vortexing for 30-45 seconds. Nuclei lysates were centrifuged for 10 minutes at 2500 rpm and 4° C. to remove debris. Following centrifugation, the supernatant was transferred to a clean Eppendorf tube. 25 μL of the supernatant was added to μL 2× Laemmli buffer (BioRad) and set aside as protein input and an additional 25 μL supernatant was set aside on ice as RNA input. The remainder of the lysate was split equally between IgG and XPO1 antibody conjugated bead tubes. Lysates were incubated with beads with end over end rotation for 2 hours at 4° C. The unbound supernatant was discarded and immunoprecipitated complexes were washed 3×5 minutes in 200 μL IP buffer with end over end rotation at 4° C. Bead-IP complexes were resuspended in 200 μL IP buffer. 100 μL of each bead-IP complex sample was set aside for RNA analysis. For the remaining 100 μL, the supernatant was discarded and 50 μL 1× Laemmli buffer was added to bead-IP complexes. All RNA samples (including input) were added to 500 μL RLT Buffer (QIAGEN) and RNA isolation, cDNA synthesis, and qRT-PCR were performed as described below. Protein samples were analyzed by western blot as described below. Equal volumes of each sample (10 μL) were loaded in acrylamide gels. […]

T1 sequence (O14980 whole entry): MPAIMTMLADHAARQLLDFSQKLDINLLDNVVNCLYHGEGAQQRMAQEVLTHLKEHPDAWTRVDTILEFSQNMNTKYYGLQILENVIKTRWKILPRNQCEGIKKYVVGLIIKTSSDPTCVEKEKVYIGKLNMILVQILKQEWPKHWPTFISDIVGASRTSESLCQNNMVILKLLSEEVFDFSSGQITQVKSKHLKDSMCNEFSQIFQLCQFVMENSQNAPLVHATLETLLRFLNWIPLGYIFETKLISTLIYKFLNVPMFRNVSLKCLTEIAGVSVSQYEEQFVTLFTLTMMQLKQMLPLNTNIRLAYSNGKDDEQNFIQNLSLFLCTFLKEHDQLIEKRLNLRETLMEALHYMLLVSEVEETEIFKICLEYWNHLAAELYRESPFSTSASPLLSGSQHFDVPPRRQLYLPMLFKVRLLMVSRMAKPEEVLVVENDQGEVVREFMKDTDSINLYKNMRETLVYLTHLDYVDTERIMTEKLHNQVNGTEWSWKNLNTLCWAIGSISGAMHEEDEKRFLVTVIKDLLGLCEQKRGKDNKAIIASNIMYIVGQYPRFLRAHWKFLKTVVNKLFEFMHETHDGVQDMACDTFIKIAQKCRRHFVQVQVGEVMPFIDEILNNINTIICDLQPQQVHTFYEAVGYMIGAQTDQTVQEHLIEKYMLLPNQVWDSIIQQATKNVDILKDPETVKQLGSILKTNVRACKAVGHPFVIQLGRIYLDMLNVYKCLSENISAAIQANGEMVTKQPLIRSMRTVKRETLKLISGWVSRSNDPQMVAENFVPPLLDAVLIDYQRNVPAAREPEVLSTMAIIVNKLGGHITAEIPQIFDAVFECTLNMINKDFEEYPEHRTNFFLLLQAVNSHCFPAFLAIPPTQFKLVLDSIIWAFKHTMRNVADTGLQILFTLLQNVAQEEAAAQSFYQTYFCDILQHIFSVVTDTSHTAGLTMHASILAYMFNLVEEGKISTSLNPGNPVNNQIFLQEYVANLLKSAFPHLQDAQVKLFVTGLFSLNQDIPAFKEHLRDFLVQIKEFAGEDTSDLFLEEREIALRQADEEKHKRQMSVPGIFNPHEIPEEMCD

binding result: no binding
B1: LEMD2 (other, human, UniProt Q8NC56 2-503, looked up)
chain: AGLSDLELRRELQALGFQPGPITDTTRDVYRNKLRRLRGEARLRDEERLREEARPRGEERLREEARLREDAPLRARPAAASPRAEPWLSQPASGSAYATPGAYGDIRPSAASWVGSRGLAYPARPAQLRRRASVRGSSEEDEDARTPDRATQGPGLAARRWWAASPAPARLPSSLLGPDPRPGLRATRAGPAGAARARPEVGRRLERWLSRLLLWASLGLLLVFLGILWVKMGKPSAPQEAEDNMKLLPVDCERKTDEFCQAKQKAALLELLHELYNFLAIQAGNFECGNPENLKSKCIPVMEAQEYIANVTSSSSAKFEAALTWILSSNKDVGIWLKGEDQSELVTTVDKVVCLESAHPRMGVGCRLSRALLTAVTNVLIFFWCLAFLWGLLILLKYRWRKLEEEEQAMYEMVKKIIDVVQDHYVDWEQDMERYPYVGILHVRDSLIPPQSRRRMKRVWDRAVEFLASNESRIQTESHRVAGEDMLVWRWTKPSSFSDSER
notes: Absent from XPO1 immunoprecipitates by western blot; also called LEM2

binding result: no binding
B2: Lamin B1 (other, human, UniProt P20700 2-583, looked up)
chain: ATATPVPPRMGSRAGGPTTPLSPTRLSRLQEKEELRELNDRLAVYIDKVRSLETENSALQLQVTEREEVRGRELTGLKALYETELADARRALDDTARERAKLQIELGKCKAEHDQLLLNYAKKESDLNGAQIKLREYEAALNSKDAALATALGDKKSLEGDLEDLKDQIAQLEASLAAAKKQLADETLLKVDLENRCQSLTEDLEFRKSMYEEEINETRRKHETRLVEVDSGRQIEYEYKLAQALHEMREQHDAQVRLYKEELEQTYHAKLENARLSSEMNTSTVNSAREELMESRMRIESLSSQLSNLQKESRACLERIQELEDLLAKEKDNSRRMLTDKEREMAEIRDQMQQQLNDYEQLLDVKLALDMEISAYRKLLEGEEERLKLSPSPSSRVTVSRASSSRSVRTTRGKRKRVDVEESEASSSVSISHSASATGNVCIEEIDVDGKFIRLKNTSEQDQPMGGWEMIRKIGDTSVSYKYTSRYVLKAGQTVTIWAANAGVTASPPTDLIWKNQNSWGTGEDVKVILKNSQGEEVAQRSTVFKTTIPEEEEEEEEAAGVVVEEELFHQQGTPRASNRSC
notes: Absent from XPO1 immunoprecipitates by western blot
